Experimental data: patent EP3020822A1 (Janssen Biotech, Inc., dated 2016)

How the values were obtained:
[1] = molecular target: T1, human TLR3 extracellular domain (ECD) (human, UniProt O15455 24-703); assay: Biacore (data not shown)
T1 construct: amino acids 1-703 of human TLR3; the structural model covers residues 30-687; also called huTLR3 ECD; TLR3 ECD

[2] = molecular target: T1, human TLR3 extracellular domain (ECD); assay: ELISA, huTLR3 ECD coated, mAb titrated, anti-human IgG-peroxidase
[3] = molecular target: T1, human TLR3 extracellular domain (ECD); assay: ELISA, human TLR3 ECD coated, goat anti-human Fc:HRP, luminescence

Row | Binder | Kd [1] [nM] | EC50 [2] [µg/mL] | binding result [3]
1 | mAb 2 (antibody, human IgG4 S228P, V domains shown, human IgG4 with S229P; also called candidate 2; Fab 2) VH: QVELVQSGAEVKKPGESLKISCKGSGYSFNNYWIGWVRQMPGKGLEWMGIIDPQDSWTNYAPSFQGQVTISADKSISTAYLQWSSLKASDTAMYYCARNIYEFDYWGQGTLVTVSS VL: DIQMTQSPSSLSASVGDRVTITCRASQGISSWLNWYQQKPGKAPKLLIYGASNLQSGVPSRFSGSGSGTDFTLTISSLQPEDFAVYYCQQYDDFSITFGQGTKVEIK | < 10 | 0.0531 | 
2 | mAb 16 (antibody, human IgG4 S228P, V domains shown, human IgG4 with S229P; also called candidate 16; Fab 16) VH: QVELVQSGAEVKKPGESLKISCKGSGYSFNNYWIGWVRQMPGKGLEWMGIIDPGDSYTNYAPSFQGQVTISADKSISTAYLQWSSLKASDTAMYYCARNIYEFDYWGQGTLVTVSS VL: DIQMTQSPSSLSASVGDRVTITCRASQGISSWLNWYQQKPGKAPKLLIYGASNLQSGVPSRFSGSGSGTDFTLTISSLQPEDFAVYYCQQYDDFSITFGQGTKVEIK | < 10 | 0.0437 | 
3 | mAb 17 (antibody, human IgG4 S228P, V domains shown, human IgG4 with S229P; also called candidate 17; Fab 17) VH: QVELQQSGPGLVKPSQTLSLTCAISGDSVSTRSAAWGWIRQSPGRGLEWLGRIYMRSKWYNDYAVSVKSRITINPDTSKNQFSLQLNSVTPEDTAVYYCARHTYPYLSFDVWGQGTLVTVSS VL: DIELTQPPSVSVAPGQTARISCSGDALGGYFVSWYQQKPGQAPVLVIYDDDNRPSGIPERFSGSNSGNTATLTISGTQAEDEADYYCASYDGDEFTVFGGGTKLTVL | < 10 | 0.0138 | 
4 | mAb 3 (antibody, human IgG4 S228P, V domains shown, human IgG4 with S229P; also called candidate 3; Fab 3) VH: QVELQQSGPGLVKPSQTLSLTCAISGDSVSTRSAAWGWIRQSPGRGLEWLGRIHRRSKWYNDYAVSVKSRITINPDTSKNQFSLQLNSVTPEDTAVYYCARHTYPYLSFDVWGQGTLVTVSS VL: DIELTQPPSVSVAPGQTARISCSGDALGGYFVSWYQQKPGQAPVLVIYDDDNRPSGIPERFSGSNSGNTATLTISGTQAEDEADYYCASYDGDEFTVFGGGTKLTVL | < 10 | 0.0234 | 
5 | mAb 6 (antibody, human IgG4 S228P, V domains shown, human IgG4 with S229P; also called candidate 6; Fab 6) VH: QVELQQSGPGLVKPSQTLSLTCAISGDSVSTRSAAWGWIRQSPGRGLEWLGRIYMRSKWYNDYAVSVKSRITINPDTSKNQFSLQLNSVTPEDTAVYYCARHTYPYLSFDVWGQGTLVTVSS VL: DIELTQPPSVSVAPGQTARISCSGDALGGYFVSWYQQKPGQAPVLVIYDDDNRPSGIPERFSGSNSGNTATLTISGTQAEDEADYYCGSYDSNSLTVFGGGTKLTVL | < 10 | 0.019 | 
6 | mAb 5 (antibody, human IgG4 S228P, V domains shown, human IgG4 with S229P; also called candidate 5; Fab 5) VH: QVELQQSGPGLVKPSQTLSLTCAISGDSVSTRSAAWGWIRQSPGRGLEWLGRIYMRSKWYNDYAVSVKSRITINPDTSKNQFSLQLNSVTPEDTAVYYCARHTYPYLSFDVWGQGTLVTVSS VL: DIELTQPPSVSVAPGQTARISCSGDALGGYFVSWYQQKPGQAPVLVIYDDDNRPSGIPERFSGSNSGNTATLTISGTQAEDEADYYCQSYDEDSATVFGGGTKLTVL | < 10 | 0.0199 | 
7 | mAb 7 (antibody, human IgG4 S228P, V domains shown, human IgG4 with S229P; also called candidate 7; Fab 7) VH: QVELQQSGPGLVKPSQTLSLTCAISGDSVSTRSAAWGWIRQSPGRGLEWLGRIYMRSKWYNDYAVSVKSRITINPDTSKNQFSLQLNSVTPEDTAVYYCARHTYPYLSFDVWGQGTLVTVSS VL: DIELTQPPSVSVAPGQTARISCSGDALGGYFVSWYQQKPGQAPVLVIYDDDNRPSGIPERFSGSNSGNTATLTISGTQAEDEADYYCSSYDSDSLTVFGGGTKLTVL | < 10 | 0.0161 | 
8 | mAb 4 (antibody, human IgG4 S228P, V domains shown, human IgG4 with S229P; also called candidate 4; Fab 4) VH: QVELQQSGPGLVKPSQTLSLTCAISGDSVSTRSAAWGWIRQSPGRGLEWLGKISYRSRWYNDYAVSVKSRITINPDTSKNQFSLQLNSVTPEDTAVYYCARHTYPYLSFDVWGQGTLVTVSS VL: DIELTQPPSVSVAPGQTARISCSGDALGGYFVSWYQQKPGQAPVLVIYDDDNRPSGIPERFSGSNSGNTATLTISGTQAEDEADYYCASYDGDEFTVFGGGTKLTVL | < 10 | 0.0128 | 
9 | mAb 8 (antibody, human IgG4 S228P, V domains shown, human IgG4 with S229P; also called candidate 8; Fab 8) VH: QVELQQSGPGLVKPSQTLSLTCAISGDSVSSNSAAWGWIRQSPGRGLEWLGIIQTRSKWYNDYAVSVKSRITINPDTSKNQFSLQLNSVTPEDTAVYYCARYSYPFYSIDYWGQGTLVTVSS VL: DIELTQPPSVSVAPGQTARISCSGDNIGSYYVHWYQQKPGQAPVLVIYEDSERPSGIPERFSGSNSGNTATLTISGTQAEDEADYYCQSYDSQFSFGVFGGGTKLTVL | < 10 | 0.0186 | 
10 | mAb 10 (antibody, human IgG4 S228P, V domains shown, human IgG4 with S229P; also called candidate 10; Fab 10) VH: QVELQQSGPGLVKPSQTLSLTCAISGDSVSSNSAAWGWIRQSPGRGLEWLGIIQKRSKWYNNYAVSVKSRITINPDTSKNQFSLQLNSVTPEDTAVYYCARYSYPFYSIDYWGQGTLVTVSS VL: DIELTQPPSVSVAPGQTARISCSGDNIGSYYVHWYQQKPGQAPVLVIYEDSERPSGIPERFSGSNSGNTATLTISGTQAEDEADYYCQSYDTPVYSVFGGGTKLTVL | < 10 | 0.0158 | 
11 | mAb 18 (antibody, human IgG4 S228P, V domains shown, human IgG4 with S229P; also called candidate 18; Fab 18) VH: QVELQQSGPGLVKPSQTLSLTCAISGDSVSSNSAAWGWIRQSPGRGLEWLGIIQKRSKWYNNYAVSVKSRITINPDTSKNQFSLQLNSVTPEDTAVYYCARYSYPFYSIDYWGQGTLVTVSS VL: DIELTQPPSVSVAPGQTARISCSGDNIGSYYVHWYQQKPGQAPVLVIYEDSERPSGIPERFSGSNSGNTATLTISGTQAEDEADYYCQSYDSQFSFGVFGGGTKLTVL | < 10 | 0.00968 | 
12 | mAb 11 (antibody, human IgG4 S228P, V domains shown, human IgG4 with S229P; also called candidate 11; Fab 11) VH: QVELQQSGPGLVKPSQTLSLTCAISGDSVSSNSAAWGWIRQSPGRGLEWLGIIQKRSKWYNNYAVSVKSRITINPDTSKNQFSLQLNSVTPEDTAVYYCARYSYPFYSIDYWGQGTLVTVSS VL: DIELTQPPSVSVAPGQTARISCSGDNIGSYYVHWYQQKPGQAPVLVIYEDSERPSGIPERFSGSNSGNTATLTISGTQAEDEADYYCSSYDEPNFNVFGGGTKLTVL | < 10 | 0.0263 | 
13 | mAb 9 (antibody, human IgG4 S228P, V domains shown, human IgG4 with S229P; also called candidate 9; Fab 9) VH: QVELQQSGPGLVKPSQTLSLTCAISGDSVSSNSAAWGWIRQSPGRGLEWLGIIQIRSKWYNDYALSVKSRITINPDTSKNQFSLQLNSVTPEDTAVYYCARYSYPFYSIDYWGQGTLVTVSS VL: DIELTQPPSVSVAPGQTARISCSGDNIGSYYVHWYQQKPGQAPVLVIYEDSERPSGIPERFSGSNSGNTATLTISGTQAEDEADYYCQSYDSQFSFGVFGGGTKLTVL | < 10 | 0.0226 | 
14 | mAb 1 (antibody, human IgG4 S228P, human IgG4 with S229P; also called candidate 1; Fab 1) heavy: not shown VL: DIVLTQSPATLSLSPGERATLSCRASQYIDISYLAWYQQKPGQAPRLLIYDASSRATGVPARFSGSGSGTDFTLTISSLEPEDFAVYYCQQYYSLSITFGQGTKVEIK | < 10 | 0.0172 | 
15 | mAb 14 (antibody, human IgG4 S228P, kappa, V domains shown, human IgG4 with S229P; also called candidate 14; Fab 14) VH: QVELVQSGAEVKKPGESLKISCKGSGYSFTNYWVGWVRQMPGKGLEWMGFIDPSDSYTNYAPSFQGQVTISADKSISTAYLQWSSLKASDTAMYYCARELYQGYMDTFDSWGQGTLVTVSS VL: DIQMTQSPSSLSASVGDRVTITCRASQSIGLYLAWYQQKPGKAPKLLIYAASSLQSGVPSRFSGSGSGTDFTLTISSLQPEDFATYYCQQAETVSPTFGQGTKVEIKR | < 10 | 0.0336 | 
16 | mAb 13 (antibody, human IgG4 S228P, V domains shown, human IgG4 with S229P; also called candidate 13; Fab 13) VH: QVELVQSGAEVKKPGESLKISCKGSGYSFTNYWVGWVRQMPGKGLEWMGFIDPSDSYTNYAPSFQGQVTISADKSISTAYLQWSSLKASDTAMYYCARELYQGYMDTFDSWGQGTLVTVSS VL: DIQMTQSPSSLSASVGDRVTITCRASQSIGLYLAWYQQKPGKAPKLLIYAASSLQSGVPSRFSGSGSGTDFTLTISSLQPEDFATYYCQQGESILSTFGQGTKVEIK | < 10 | 0.0235 | 
17 | mAb 15-4 (antibody, human IgG4 S228P, kappa, F234A L235A, V domains shown, also called HC: A61S/Q67H) VH: EVQLVQSGAEVKKPGESLKISCKGSGYSFTNYWVGWVRQMPGKGLEWMGFIDPSDSYTNYSPSFQGHVTISADKSISTAYLQWSSLKASDTAMYYCARELYQGYMDTFDSWGQGTLVTVSS VL: DIQMTQSPSSLSASVGDRVTITCRASQSIGLYLAWYQQKPGKAPKLLIYAASSLQSGVPSRFSGSGSGTDFTLTISSLQPEDFATYYCQQGNTLSYTFGQGTKVEIKR |  |  | binds
18 | mAb 15-1 (antibody, human IgG4 S228P, kappa, F234A L235A, V domains shown, also called HC: F50R) VH: EVQLVQSGAEVKKPGESLKISCKGSGYSFTNYWVGWVRQMPGKGLEWMGRIDPSDSYTNYAPSFQGQVTISADKSISTAYLQWSSLKASDTAMYYCARELYQGYMDTFDSWGQGTLVTVSS VL: DIQMTQSPSSLSASVGDRVTITCRASQSIGLYLAWYQQKPGKAPKLLIYAASSLQSGVPSRFSGSGSGTDFTLTISSLQPEDFATYYCQQGNTLSYTFGQGTKVEIKR |  |  | binds
19 | mAb 15-3 (antibody, human IgG4 S228P, kappa, F234A L235A, V domains shown, also called HC: V34I/G35S) VH: EVQLVQSGAEVKKPGESLKISCKGSGYSFTNYWISWVRQMPGKGLEWMGFIDPSDSYTNYAPSFQGQVTISADKSISTAYLQWSSLKASDTAMYYCARELYQGYMDTFDSWGQGTLVTVSS VL: DIQMTQSPSSLSASVGDRVTITCRASQSIGLYLAWYQQKPGKAPKLLIYAASSLQSGVPSRFSGSGSGTDFTLTISSLQPEDFATYYCQQGNTLSYTFGQGTKVEIKR |  |  | binds
20 | mAb 19 (antibody, human IgG4 S228P, V domains shown, human IgG4 with S229P; also called candidate 19; Fab 19) VH: QVELVQSGAEVKKPGESLKISCKGSGYSFTNYWVGWVRQMPGKGLEWMGFIDPSDSYTNYAPSFQGQVTISADKSISTAYLQWSSLKASDTAMYYCARELYQGYMDTFDSWGQGTLVTVSS VL: DIQMTQSPSSLSASVGDRVTITCRASQSIGLYLAWYQQKPGKAPKLLIYAASSLQSGVPSRFSGSGSGTDFTLTISSLQPEDFATYYCQQYGSVSITFGQGTKVEIK | < 10 | 0.0665 | 
21 | mAb 15-2 (antibody, human IgG4 S228P, kappa, F234A L235A, V domains shown, also called HC: V34I) VH: EVQLVQSGAEVKKPGESLKISCKGSGYSFTNYWIGWVRQMPGKGLEWMGFIDPSDSYTNYAPSFQGQVTISADKSISTAYLQWSSLKASDTAMYYCARELYQGYMDTFDSWGQGTLVTVSS VL: DIQMTQSPSSLSASVGDRVTITCRASQSIGLYLAWYQQKPGKAPKLLIYAASSLQSGVPSRFSGSGSGTDFTLTISSLQPEDFATYYCQQGNTLSYTFGQGTKVEIKR |  |  | binds
